The source of these data is patent US20210115100A1.

What all share (assay): cell-based or functional assay
Assay [1] addresses human mature BMP7 protein variant F9 (SEQ ID NO: 8) (human) (UniProt P18075).
Assay [2] deals with wild type human mature BMP7 (SEQ ID NO: 2) (human) (UniProt P18075).
In assay [3] the target is wild type human pro-BMP7 (human) (UniProt P18075).
The target of assay [4] is human pro-BMP7 protein variant F9 (human) (UniProt P18075).
Chain of human pro-BMP7 protein variant F9 (human) (P18075 other isoform, or with tags, fused parts or gaps mutant, chain 1 of 2): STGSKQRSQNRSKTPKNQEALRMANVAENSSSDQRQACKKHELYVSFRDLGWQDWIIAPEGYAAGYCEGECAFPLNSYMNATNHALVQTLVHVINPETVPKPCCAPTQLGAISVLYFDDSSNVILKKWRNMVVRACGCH
Chain of human pro-BMP7 protein variant F9 (human) (P18075 other isoform, or with tags, fused parts or gaps mutant, chain 2 of 2): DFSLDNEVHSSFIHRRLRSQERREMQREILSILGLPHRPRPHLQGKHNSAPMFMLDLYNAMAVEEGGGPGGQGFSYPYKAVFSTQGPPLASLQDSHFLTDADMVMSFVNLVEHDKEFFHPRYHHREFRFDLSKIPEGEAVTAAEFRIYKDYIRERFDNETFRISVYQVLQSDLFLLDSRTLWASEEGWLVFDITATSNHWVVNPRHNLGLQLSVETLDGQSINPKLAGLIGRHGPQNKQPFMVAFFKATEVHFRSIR

Chain of human mature BMP7 protein variant F9 (SEQ ID NO: 8) (human) (P18075 other isoform, or with tags, fused parts or gaps mutant): as the sequence (P18075 other isoform, or with tags, fused parts or gaps mutant, chain 1 of 2) above
Chain of Follistatin (P19883 30-344): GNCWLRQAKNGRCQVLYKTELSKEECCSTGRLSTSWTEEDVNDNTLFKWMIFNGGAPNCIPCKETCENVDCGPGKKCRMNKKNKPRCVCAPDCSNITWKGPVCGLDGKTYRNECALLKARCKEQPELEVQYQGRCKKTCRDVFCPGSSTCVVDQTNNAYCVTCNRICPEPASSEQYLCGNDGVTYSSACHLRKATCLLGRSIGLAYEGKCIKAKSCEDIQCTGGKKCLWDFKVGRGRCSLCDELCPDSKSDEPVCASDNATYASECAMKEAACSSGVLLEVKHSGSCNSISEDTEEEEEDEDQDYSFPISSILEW
Chain of wild type human mature BMP7 (SEQ ID NO: 2) (human) (P18075 293-431): as the sequence (P18075 other isoform, or with tags, fused parts or gaps mutant, chain 1 of 2) above, with G65Y, L86I, V93F, G110N, W128Y counted along it
Chain of wild type human pro-BMP7 (human) (P18075 293-431, chain 1 of 2): as the sequence (P18075 other isoform, or with tags, fused parts or gaps mutant, chain 1 of 2) above, with G65Y, L86I, V93F, G110N, W128Y counted along it
Chain of wild type human pro-BMP7 (human) (P18075 other isoform, or with tags, fused parts or gaps, chain 2 of 2): as the sequence (P18075 other isoform, or with tags, fused parts or gaps mutant, chain 2 of 2) above

On to Chordin, for which, in assay [1], the % inhibition, 0.01X molar excess of inhibitor (hepcidin promoter luciferase, Hep3B2 HepPro luc cells) stood at 3.7%; the % inhibition, 0.1X molar excess of inhibitor (hepcidin promoter luciferase, Hep3B2 HepPro luc cells) is 6.8%; the % inhibition, 1X molar excess of inhibitor (hepcidin promoter luciferase, Hep3B2 HepPro luc cells) is 5.2%; the % inhibition, 10X molar excess of inhibitor (hepcidin promoter luciferase, Hep3B2 HepPro luc cells) amounted to 5.6%. For the same substance, in assay [2], the % inhibition, 0.1X molar excess of inhibitor (hepcidin promoter luciferase, Hep3B2 HepPro luc cells) is -13.1%; the % inhibition, 1X molar excess of inhibitor (hepcidin promoter luciferase, Hep3B2 HepPro luc cells) is -9.2%; the % inhibition, 10X molar excess of inhibitor (hepcidin promoter luciferase, Hep3B2 HepPro luc cells) is 21.3%; the % inhibition, 100X molar excess of inhibitor (hepcidin promoter luciferase, Hep3B2 HepPro luc cells) worked out at 70.9%. In addition, in assay [3], the % inhibition, 0.1X molar excess of inhibitor (hepcidin promoter luciferase, Hep3B2 HepPro luc cells) is -15.1%; the % inhibition, 1X molar excess of inhibitor (hepcidin promoter luciferase, Hep3B2 HepPro luc cells) was -2.2%; the % inhibition, 10X molar excess of inhibitor (hepcidin promoter luciferase, Hep3B2 HepPro luc cells) was determined as 18.9%; the % inhibition, 100X molar excess of inhibitor (hepcidin promoter luciferase, Hep3B2 HepPro luc cells) worked out at 76.5%. In addition, in assay [4], the % inhibition, 0.1X molar excess of inhibitor (hepcidin promoter luciferase, Hep3B2 HepPro luc cells) is -5.9%; the % inhibition, 1X molar excess of inhibitor (hepcidin promoter luciferase, Hep3B2 HepPro luc cells) is -5.3%; the % inhibition, 10X molar excess of inhibitor (hepcidin promoter luciferase, Hep3B2 HepPro luc cells) was -1.3%; the % inhibition, 100X molar excess of inhibitor (hepcidin promoter luciferase, Hep3B2 HepPro luc cells) is -17.7%.
Regarding Follistatin, in assay [1], the % inhibition, 0.01X molar excess of inhibitor (hepcidin promoter luciferase, Hep3B2 HepPro luc cells) came to 3.9%; the % inhibition, 0.1X molar excess of inhibitor (hepcidin promoter luciferase, Hep3B2 HepPro luc cells) was found to be 10.6%; the % inhibition, 1X molar excess of inhibitor (hepcidin promoter luciferase, Hep3B2 HepPro luc cells) came out at 10%; the % inhibition, 10X molar excess of inhibitor (hepcidin promoter luciferase, Hep3B2 HepPro luc cells) came to 23.8%. In assay [2], the % inhibition, 0.1X molar excess of inhibitor (hepcidin promoter luciferase, Hep3B2 HepPro luc cells) is -16.6%; the % inhibition, 1X molar excess of inhibitor (hepcidin promoter luciferase, Hep3B2 HepPro luc cells) was -11.9%; the % inhibition, 10X molar excess of inhibitor (hepcidin promoter luciferase, Hep3B2 HepPro luc cells) stood at 21.1%; the % inhibition, 100X molar excess of inhibitor (hepcidin promoter luciferase, Hep3B2 HepPro luc cells) was found to be 54.7%. In assay [3], the % inhibition, 0.1X molar excess of inhibitor (hepcidin promoter luciferase, Hep3B2 HepPro luc cells) was -10.4%; the % inhibition, 1X molar excess of inhibitor (hepcidin promoter luciferase, Hep3B2 HepPro luc cells) was 5.9%; the % inhibition, 10X molar excess of inhibitor (hepcidin promoter luciferase, Hep3B2 HepPro luc cells) stood at 29.5%; the % inhibition, 100X molar excess of inhibitor (hepcidin promoter luciferase, Hep3B2 HepPro luc cells) was determined as 79.8%. Moreover, in assay [4], the % inhibition, 0.1X molar excess of inhibitor (hepcidin promoter luciferase, Hep3B2 HepPro luc cells) was -2.6%; the % inhibition, 1X molar excess of inhibitor (hepcidin promoter luciferase, Hep3B2 HepPro luc cells) was -4.3%; the % inhibition, 10X molar excess of inhibitor (hepcidin promoter luciferase, Hep3B2 HepPro luc cells) came to 11.7%; the % inhibition, 100X molar excess of inhibitor (hepcidin promoter luciferase, Hep3B2 HepPro luc cells) was 22.5%.
Take Chordin-like 2: in assay [1], the % inhibition, 0.01X molar excess of inhibitor (hepcidin promoter luciferase, Hep3B2 HepPro luc cells) is -1.5%; the % inhibition, 0.1X molar excess of inhibitor (hepcidin promoter luciferase, Hep3B2 HepPro luc cells) is -3.2%; the % inhibition, 1X molar excess of inhibitor (hepcidin promoter luciferase, Hep3B2 HepPro luc cells) is -1%; the % inhibition, 10X molar excess of inhibitor (hepcidin promoter luciferase, Hep3B2 HepPro luc cells) came to 9%. Also, in assay [2], the % inhibition, 0.1X molar excess of inhibitor (hepcidin promoter luciferase, Hep3B2 HepPro luc cells) was -13.7%; the % inhibition, 1X molar excess of inhibitor (hepcidin promoter luciferase, Hep3B2 HepPro luc cells) stood at 49%; the % inhibition, 10X molar excess of inhibitor (hepcidin promoter luciferase, Hep3B2 HepPro luc cells) was determined as 69.5%; the % inhibition, 100X molar excess of inhibitor (hepcidin promoter luciferase, Hep3B2 HepPro luc cells) came out at 71.9%. In assay [3], the % inhibition, 0.1X molar excess of inhibitor (hepcidin promoter luciferase, Hep3B2 HepPro luc cells) was found to be 8.9%; the % inhibition, 1X molar excess of inhibitor (hepcidin promoter luciferase, Hep3B2 HepPro luc cells) is 55.9%; the % inhibition, 10X molar excess of inhibitor (hepcidin promoter luciferase, Hep3B2 HepPro luc cells) turned out to be 87.5%; the % inhibition, 100X molar excess of inhibitor (hepcidin promoter luciferase, Hep3B2 HepPro luc cells) was determined as 88.2%. Moreover, in assay [4], the % inhibition, 0.1X molar excess of inhibitor (hepcidin promoter luciferase, Hep3B2 HepPro luc cells) was found to be 3.5%; the % inhibition, 1X molar excess of inhibitor (hepcidin promoter luciferase, Hep3B2 HepPro luc cells) came to 2.4%; the % inhibition, 10X molar excess of inhibitor (hepcidin promoter luciferase, Hep3B2 HepPro luc cells) came out at 8.8%; the % inhibition, 100X molar excess of inhibitor (hepcidin promoter luciferase, Hep3B2 HepPro luc cells) was 24.9%.
